Results taken from patent US8507275B2, “Method of inducing differentiation of embryonic stem cells into hemangioblast” (Korea Advanced Institute of Science and Technology (Kaist), priority 2008, dated 2013).

B1: BMP-4: bone morphogenetic protein, growth factor used to regulate differentiation of embryonic stem cells (protein, UniProt P12644 293-408, looked up)
Bone morphogenetic protein 4: SPKHHSQRARKKNKNCRRHSLYVDFSDVGWNDWIVAPPGYQAFYCHGDCPFPLADHLNSTNHAIVQTLVNSVNSSIPKACCVPTELSAISMLYLDEYDKVVLKNYQEMVVEGCGCR
B2: PDGF-BB: Platelet-derived growth factor-BB (protein, UniProt P01127 82-190, looked up)
Platelet-derived growth …: SLGSLTIAEPAMIAECKTRTEVFEISRRLIDRTNANFLVWPPCVEVQRCSGCCNNRNVQCRPTQVQLRPVQVRKIEIVRKKPIFKKATVTLEDHLACKCETVAAARPVT

What was measured:
[1] = system: human embryonic stem cells; test: RT-PCR of mesoderm-specific marker genes in treated human embryonic stem cells; assay type: cell-based; details: PD98059 20˜50 μM, BMP-4 10˜20 ng/ml; 3 days and 5 days; FIG. 2(A)
Description: The human embryonic stem cells cultured in Example 1 were cultured for 3 days in a conditioned medium that contained the MEK1/2 inhibitors, PD98059 and BMP-4 at a concentration of 20˜50 μM and 10˜20 ng/ml, respectively. Then, in order to confirm the differentiation of human embryonic stem cells into mesodermal cells, expression of the mesoderm-specific marker genes was examined by RT-PCR. For analysis of gene expression, total RNA was isolated from cells, and cDNA was synthesized using reverse transcriptase, followed by PCR (polymerase-chain reaction) using primers specific to each gene.
As a control group, sample was cultured only in the conditioned medium for 5 days. As experimental groups, cells were cultured for 3 days and 5 days in culture media that were prepared by adding each of PD98059 and BMP-4 to the unconditioned medium at a concentration of 20˜50 μM and 10˜20 ng/ml, respectively. In addition, cells were simultaneously treated with PD98059 and BMP-4, and examined for 3 days and 5 days.

[2] = system: CD34 positive cells (hESC-derived hemangioblasts); test: RT-PCR of vascular smooth muscle cell-specific markers in CD34 positive cells; assay type: cell-based, human; details: EGM with PDGF-BB 50 ng/ml, about 5 days; FIG. 5(a)
Description: In order to differentiate CD34 positive cells into vascular smooth muscle cells, CD34 positive cells were cultured for about 5 days in EGM (Endothelial cell Growth Medium, clonetics, USA) containing PDGF-BB at a concentration of 50 ng/ml. Expressions of the vascular smooth muscle cell-specific markers were examined by RT-PCR. For analysis of gene expression, total RNA was isolated from cells, and cDNA was synthesized using reverse transcriptase, followed by PCR (polymerase-chain reaction) using primers specific to each gene.

[3] = system: hESC-derived vascular smooth muscle cells; test: Immunofluorescent staining of vascular smooth muscle cell-specific markers; assay type: cell-based, human; details: EGM with PDGF-BB; FIG. 5(b)
Description: In order to confirm the differentiation into vascular smooth muscle cell at protein level, expressions of the vascular smooth muscle cell-specific markers were examined by immunofluorescent staining. In order to stain the hESC-derived vascular smooth muscle cells with the vascular smooth muscle cell-specific markers, α-smooth muscle actin (α-SMA) and calponin, the sample was first fixed in 4% paraformaldehyde at room temperature for 20 min, and then washed with a PBST solution (0.1% Tween-20 in PBS) for 5 min three times. To allow permeabilization of antibodies into the nucleus, a permeating solution (0.1% Triton X-100 in PBS) was added to culture plates, and left at room temperature for 15 min. After 15 min, the permeating solution was removed, and 4% NGS (Normal Goat Serum) was added for blocking at room temperature for 1 hr. […] Next day, in order to examine expressions of the markers (α-SMA, calponin) under a fluorescence microscope, secondary antibodies against the marker antibodies (Alexa 488-conjugated Goat anti-mouse IgG and Alexa 594-conjugated Goat anti-Rabbit poly) were added, and left at room temperature for 1 hr. After 1 hr, the culture plates were washed with a PBST solution for 10 min five times, and a fluorescence microscope was used to examine their expressions.

Row | Molecule | Expressions of the mesoderm-specific markers BRACHYURY, GOOSECOID, TBX-4, TBX-5 and TBX-6 (RT-PCR) [1] | Expression of the vascular smooth muscle cell-specific markers SM22α, SM-MHC, PDGF-B receptor, α-SMA and calponin (RT-PCR) [2] | Expressions of the vascular smooth muscle cell-specific markers α-SMA and calponin at protein level (immunofluorescent staining) [3]
1 | COc1cccc(-c2cc(=O)c3ccccc3o2)c1N [PD98059, 2-(2-amino-3-methoxyphenyl)-4H-1-Benzopyran-4-one2-(2′-Amino-3′-methoxy)-flavone2-(2-amino-3-methoxyphenyl)-chromone, reference compound] | not observed | – | –
2 | B1 | not observed | – | –
3 | B2 | – | found to express | observed
